Data as given in patent US12102667B2, “Polypeptides and antibiotics against gram-negative bacterium comprising the same” (priority 2021, dated 2024).

Tests used:
E. coli [1] = assay: MIC and MBC, broth microdilution in CAA medium; assay type: cell-based, Escherichia coli
Procedure: (§1) The MIC of the LNT113 or antibiotic was determined using modification of the broth microdilution method in a 96-well, round bottom, microplate according to the previously described method (Heselpoth et al., 2019). Exponentially grown cells were diluted to a concentration of 10^6 CFU/ml in a CAA medium, and then cultured with recombinant LNT113 (1-64 μg/ml) or antibiotics at 35° C. for 20 hours. […] The MBC was defined as the lowest concentration of the antibacterial agent with no growth on a plate. All analyses were performed in duplicate.

K. pneumoniae = assay: Antibacterial activity analysis (colony count after 2 hours in buffer); assay type: cell-based, Klebsiella pneumoniae; conditions: 2 μM
Procedure: The antibacterial activity of the purified protein was tested for E. coli and various K. pneumoniae strains. The bacterium were grown to an exponential phase (OD600=0.5) and harvested by centrifugation at 12,000×g for 3 minutes. Then, the pellets were washed with reaction buffer solution (20 mM Tris-HCl, pH 7.5) and diluted to about 10^6 cells/ml in the buffer solution. Then, 100 μl bacterial suspension was mixed with the purified endolysin of 100 μl in the reaction buffer solution and incubated at 37° C. for 2 hours. Finally, the mixture was diluted with PBS and loaded on an LB plate. After culturing at 37° C. overnight, the bacterial colonies were counted. All the analysis was performed in triplicate.
The same reaction was performed for the selected subject bacterium in 20 mM HEPES-NaOH, 150 mM NaCl [pH 7.4], and the unique antibacterial activity of Tris and dependence of endolysin for turgor pressure were excluded (FIG. 10a and FIG. 10b). […] The bacterial cells grown geometrically were cultured with 2 μM endolysin in low tonicity buffers (20 mM Tris-HCl, pH 7.5 or 20 mM HEPES, pH 7.5) or high tonicity buffers (buffer solution comprising 150 mM NaCl) at 37° C. for 2 hours. The cells treated with storage buffer solution (20 mM Tris-HCl, pH 7.5, 150 mM NaCl buffer solution (pH 7.5)) were used as a negative control group. The dotted line represents the detection limit (1 Log CFU/ml).

E. coli [2] = assay: Checkerboard assay (MIC in combination, FIC index); assay type: cell-based, Escherichia coli
Procedure: LNT113 was vertically diluted 2-fold and the antibiotic was serially diluted horizontally in a 96-well plate. Bacterium at a concentration of 10^6 CFU/ml were added to each well in a CAA medium. […] The fractional inhibitory concentration (FIC) for the LNT113 or antibiotic was calculated by dividing the MIC of two drugs by combining it with the MIC of each drug alone. […] The FICI was considered as a synergistic effect ≤0.5, an additive >0.5 ˜≤1, an independent effect (indifference)>1.0 ˜≤2, and an antagonistic effect (antagonism) >2.

E. cloacae = assay: MIC, broth microdilution; assay type: cell-based, Enterobacter cloacae
Procedure: as §1

P. aeruginosa = assay: MIC, broth microdilution; assay type: cell-based, Pseudomonas aeruginosa
Procedure: as §1

B1: LNT113: fusion polypeptide: Cecropin A, (GGGGS)3 linker, mutant endolysin mtEC340; recombinant form with C-terminal His tag (protein)
chain: MKWKLFKKIEKVGQNIRDGIIKAGPAVAVVGQATQIAKGGGGSGGGGSGGGGSVSRNISNNGIKFTAAFEGFRGTAYRATPNEKYLTIGYGSYGPHVEPGKTITPGQGLLLLNRDMAKAVAAVDAVAHHSLTQSQFDAVCDLVYNAGAGVIAAATGTGKALRSGDVATLRAKLALFINQNGKPLLGLRRRTAGRLALFDGKPWQEAEAIGRAVKG
modifications: synthetic_Met+Cecropin A+GGGGS3 linker+mtEC340
notes: fusion polypeptide: Cecropin A, (GGGGS)3 linker, mutant endolysin mtEC340; recombinant form with C-terminal His tag
MBC (E. coli [1]; E. coli ATCC 8739): 8 µg/mL
MIC (E. coli [1]; E. coli ATCC 8739): 8 µg/mL
MBC (E. coli [1]; E. coli ATCC 25922): 64 µg/mL
MIC (E. coli [1]; E. coli ATCC 25922): 64 µg/mL
MBC (E. coli [1]; E. coli ATCC 51739): 8 µg/mL
MIC (E. coli [1]; E. coli ATCC 51739): 8 µg/mL
MBC (E. coli [1]; E. coli CCARM 1A746): 4 µg/mL
MIC (E. coli [1]; E. coli CCARM 1A746): 4 µg/mL
MBC (E. coli [1]; E. coli CCARM 1G490): 16 µg/mL
MIC (E. coli [1]; E. coli CCARM 1G490): 16 µg/mL
MBC (E. coli [1]; E. coli ECOR 1): 8 µg/mL
MIC (E. coli [1]; E. coli ECOR 1): 8 µg/mL
MBC (E. coli [1]; E. coli ECOR 2): 8 µg/mL
MIC (E. coli [1]; E. coli ECOR 2): 8 µg/mL
MBC (E. coli [1]; E. coli ECOR 9): 4 µg/mL
MIC (E. coli [1]; E. coli ECOR 9): 4 µg/mL
MBC (E. coli [1]; E. coli ECOR 15): 32 µg/mL
MIC (E. coli [1]; E. coli ECOR 15): 32 µg/mL
MBC (E. coli [1]; E. coli ECOR 35): 16 µg/mL
MIC (E. coli [1]; E. coli ECOR 35): 16 µg/mL
MBC (E. coli [1]; E. coli ECOR 36): >64 µg/mL
MIC (E. coli [1]; E. coli ECOR 36): >64 µg/mL
MBC (E. coli [1]; E. coli ECOR 43): 16 µg/mL
MIC (E. coli [1]; E. coli ECOR 43): 16 µg/mL
MBC (E. coli [1]; E. coli ECOR 45): 4 µg/mL
MIC (E. coli [1]; E. coli ECOR 45): 4 µg/mL
MBC (E. coli [1]; E. coli ECOR 52): >64 µg/mL
MIC (E. coli [1]; E. coli ECOR 52): 64 µg/mL
MBC (E. coli [1]; E. coli ECOR 69): >64 µg/mL
MIC (E. coli [1]; E. coli ECOR 69): >64 µg/mL
MBC (E. coli [1]; E. coli F485): 4 µg/mL
MIC (E. coli [1]; E. coli F485): 4 µg/mL
MBC (E. coli [1]; E. coli F524): 8 µg/mL
MIC (E. coli [1]; E. coli F524): 8 µg/mL
MBC (E. coli [1]; E. coli F576): 4 µg/mL
MIC (E. coli [1]; E. coli F576): 4 µg/mL
MBC (E. coli [1]; E. coli F716): >64 µg/mL
MIC (E. coli [1]; E. coli F716): >64 µg/mL
MBC (E. coli [1]; E. coli F852): 16 µg/mL
MIC (E. coli [1]; E. coli F852): 8 µg/mL
MBC (E. coli [1]; E. coli FORC81): 8 µg/mL
MIC (E. coli [1]; E. coli FORC81): 8 µg/mL
MBC (E. coli [1]; E. coli UPEC 90): 64 µg/mL
MIC (E. coli [1]; E. coli UPEC 90): 64 µg/mL
MBC (E. coli [1]; E. coli UPEC 3038): 16 µg/mL
MIC (E. coli [1]; E. coli UPEC 3038): 16 µg/mL
MBC (E. coli [1]; E. coli UPEC 3042): 16 µg/mL
MIC (E. coli [1]; E. coli UPEC 3042): 16 µg/mL
MBC (E. coli [1]; E. coli UPEC 3051): 16 µg/mL
MIC (E. coli [1]; E. coli UPEC 3051): 16 µg/mL
MBC (E. coli [1]; E. coli UPEC 3150): 8 µg/mL
MIC (E. coli [1]; E. coli UPEC 3150): 8 µg/mL
MBC (E. coli [1]; E. coli UPEC 3151): 64 µg/mL
MIC (E. coli [1]; E. coli UPEC 3151): 64 µg/mL
MBC (E. coli [1]; E. coli UPEC 3163): 16 µg/mL
MIC (E. coli [1]; E. coli UPEC 3163): 16 µg/mL
MBC (E. coli [1]; E. coli UPEC 3164): 32 µg/mL
MIC (E. coli [1]; E. coli UPEC 3164): 32 µg/mL
MBC (E. coli [1]; E. coli UPEC 3168): 8 µg/mL
MIC (E. coli [1]; E. coli UPEC 3168): 8 µg/mL
MBC (E. coli [1]; E. coli UPEC 3181): 8 µg/mL
MIC (E. coli [1]; E. coli UPEC 3181): 8 µg/mL
MBC compared with MIC (E. coli [1]; various E. coli strains): same as MIC
MIC in most of the strains (E. coli [1]; various E. coli strains of Table 2): 4 to 64 µg/mL
antibacterial activity (number of bacterium) (K. pneumoniae; K. pneumoniae ATCC700603, KCTC2208, CCARM10143, F85, 2 hours, Tris-HCl pH 7.5): more excellent antibacterial activity
effect of adding NaCl on antibacterial activity (K. pneumoniae; K. pneumoniae KCTC 2208, Tris or Hepes buffer with 150 mM NaCl): negative effect of salt presence was significantly reduced
increase in activity compared to mtEC340 (K. pneumoniae; K. pneumoniae strains, 2 hours): ≤ 4 log
viable bacterial cells after culturing for 2 hours (K. pneumoniae; all tested K. pneumoniae strains): No viable bacterial cells were detected
MIC of endolysin combined with colistin: LNT113 (E. coli [2]; E. coli ATOCB739, Colistin 0): 8 µg/mL
MIC of endolysin combined with colistin: LNT113 (E. coli [2]; E. coli ATOCB739, Colistin 0.0625): 4 µg/mL
MIC of endolysin combined with colistin: LNT113 (E. coli [2]; E. coli ATOCB739, Colistin 0.5): 2 µg/mL
MIC of endolysin combined with colistin: LNT113 (E. coli [2]; E. coli ATOCB739, Colistin 1): 1 µg/mL
MIC of endolysin combined with colistin: LNT113 (E. coli [2]; E. coli FORC81, Colistin 0): 8 µg/mL
MIC of endolysin combined with colistin: LNT113 (E. coli [2]; E. coli FORC81, Colistin 1): 4 µg/mL
MIC of endolysin combined with colistin: LNT113 (E. coli [2]; E. coli FORC81, Colistin 4): 2 µg/mL
MIC of endolysin combined with colistin: LNT113 (E. coli [2]; E. coli FORC81, Colistin 8): <0.25 µg/mL
MIC of endolysin combined with colistin: LNT113 (E. coli [2]; E. coli UPEC3150, Colistin 0): 8 µg/mL
MIC of endolysin combined with colistin: LNT113 (E. coli [2]; E. coli UPEC3150, Colistin 0.0625): 4 µg/mL
MIC of endolysin combined with colistin: LNT113 (E. coli [2]; E. coli UPEC3150, Colistin 0.5): 2 µg/mL
MIC of endolysin combined with colistin: LNT113 (E. coli [2]; E. coli UPEC3150, Colistin 2): 1 µg/mL
MIC (E. cloacae; E. cloacae ATCC 13047): 16 µg/mL
MIC (E. cloacae; E. cloacae CCARM 0252): 4 µg/mL
MIC (E. cloacae; E. cloacae CCARM 16003): 8 µg/mL
MIC (P. aeruginosa; P. aeruginosa ATCC 15522): 8 µg/mL
MIC (P. aeruginosa; P. aeruginosa F102): 16 µg/mL
MIC (P. aeruginosa; P. aeruginosa F125): 4 µg/mL
MIC (P. aeruginosa; P. aeruginosa F141): 16 µg/mL
MIC (P. aeruginosa; P. aeruginosa F171): 32 µg/mL
MIC (P. aeruginosa; P. aeruginosa F388): 32 µg/mL
MIC (P. aeruginosa; P. aeruginosa PA01): 4 µg/mL
